The values below come from patent publication EP4063498B1.

The assay deals with OXA-23-type carbapenemase (UniProt Q9L4P2). As to the kind of experiment: indirect ELISA, plate coated with OXA-23-type carbapenemase at 0.2 ug/mL, serial dilution of purified antibody from 1:1,000. As to conditions: scale: dilution factor. For orientation: An ELISA detects its analyte on a solid surface through an enzyme-linked reagent.

Where only a bound is given, the exact number is not on record here.

Sequence of UniProt Q9L4P2 (Q9L4P2 18-273 limits assumed): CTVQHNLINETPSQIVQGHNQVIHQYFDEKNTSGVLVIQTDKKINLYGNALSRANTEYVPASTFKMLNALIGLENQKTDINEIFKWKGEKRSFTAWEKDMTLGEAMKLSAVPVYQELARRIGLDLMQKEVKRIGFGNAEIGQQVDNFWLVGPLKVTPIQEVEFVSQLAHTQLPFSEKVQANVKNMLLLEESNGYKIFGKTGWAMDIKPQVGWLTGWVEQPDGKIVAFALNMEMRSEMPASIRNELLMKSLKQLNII

B1: antibody HB12 (antibody, V domains shown)
VH: VQLQQSGAELVKPGASVKLSCKTSGYTFTSYWMYWVKQRPGQGLEWIGEIYPTNGRTNYNEKFKTKATLTVDKSSSTAYMQLSSLTSEDSAVYYCAIYYYGSYAMDYWGQGTSVTVSS
VL: DIVMTQSHKFMSTSVGDRVSITCKASQDVSIAVAWFQQKPGQSPKLLIYWASTRHTGVPDRFTGSGSGTDYTLTISSVQAEDLALYYCQQHYSTPYLFGGGTKLEIKR
With B1, the titer was above 640000.

B2: antibody FA2 (antibody, V domains shown)
VH: VQLKQSGPGLVQPSQSLSITCTVSGFSLTSYGVHWVRRSPGKGLEWLGVIWRGGNTDYNAAFMSRLSITKDNSKSQVFFKMTSLQGDDTAIYSCVKSLTTSTFDYWGQGTLVTVSS
VL: DIVMTQSHKLMSTSVGDRVSITCKGSQDVRTAVAWYQQKPGQSPNLLIYWASTRHTGVPDRFTGSGSGTDYILTITSVQAEDLALYYCQQHYSIPYTFGGGTKLEIKR
Regarding B2, the titer is above 640000.
